Measured values published in article PMC7897774.

Molecular target: HLA-A*02:01
Test: differential scanning fluorimetry

In the case of “F7A-modified PMEL_(209(2M)–217) epitope (peptide)”, the Tm of the peptide/HLA-A*02:01 complex is reported as 61.7 °C.

With IMDQVPFSV [PMEL_(209(2M)–217) epitope (…)] the Tm of the peptide/HLA-A*02:01 complex was 61.9 °C.
